Reference: patent US20210147513A1

Key:
[1] = target: S1(349-590)-hFc (MERS-CoV; human); assay: BLI (Octet RED96), wild type RBD-hFc
hDPP4 Cells (human) = hDPP4 Cells (human) (UniProt P27487); assay: FACS; details: Fc fusion
hDPP4 Cells (human), sequence (P27487 whole entry, the tested form may be a part): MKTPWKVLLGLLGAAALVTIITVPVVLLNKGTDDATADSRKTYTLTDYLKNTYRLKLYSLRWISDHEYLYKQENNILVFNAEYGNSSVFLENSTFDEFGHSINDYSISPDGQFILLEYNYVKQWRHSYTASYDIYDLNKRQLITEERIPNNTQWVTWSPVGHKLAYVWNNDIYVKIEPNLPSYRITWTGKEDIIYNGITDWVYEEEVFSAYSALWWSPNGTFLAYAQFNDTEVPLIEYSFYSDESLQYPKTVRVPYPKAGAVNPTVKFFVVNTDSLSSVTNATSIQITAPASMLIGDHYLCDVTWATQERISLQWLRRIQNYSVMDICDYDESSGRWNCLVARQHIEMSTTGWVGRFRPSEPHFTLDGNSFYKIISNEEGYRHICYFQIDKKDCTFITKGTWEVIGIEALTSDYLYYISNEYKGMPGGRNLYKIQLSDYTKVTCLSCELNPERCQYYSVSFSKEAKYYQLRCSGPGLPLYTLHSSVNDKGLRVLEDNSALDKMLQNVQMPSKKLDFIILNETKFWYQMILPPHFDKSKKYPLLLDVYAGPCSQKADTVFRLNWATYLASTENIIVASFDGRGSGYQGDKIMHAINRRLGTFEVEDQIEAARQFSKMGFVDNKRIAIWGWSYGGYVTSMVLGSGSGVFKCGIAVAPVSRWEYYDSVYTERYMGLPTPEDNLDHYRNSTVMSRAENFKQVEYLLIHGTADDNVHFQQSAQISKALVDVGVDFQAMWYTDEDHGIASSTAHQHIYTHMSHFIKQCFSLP

Row | Substance | Kd [1] [nM] | EC50 (hDPP4 Cells (human)) [µg/mL]
1 | Recombinant soluble human DPP4 (from UniProt P27487 29-766) (receptor) | 21.4 | 
2 | Wt. RBD |  | 0.015
